In article doi:10.1101/2021.10.27.466211 (bioRxiv, 2021):

Target: the molecule itself
Test: cross-linking

B1: PomA-L22C/T33C (natural protein, Vibrio alginolyticus, UniProt O06873 1-253, looked up)
chain: MDLATLLGLIGGFAFVIMAMVCGGSIGMFVDVCSILIVVGGSIFVVLMKFTMGQFFGATKIAGKAFMFKADEPEDLIAKIVEMADAARKGGFLALEEMEINNTFMQKGIDLLVDGHDADVVRAALKKDIALTDERHTQGTGVFRAFGDVAPAMGMIGTLVGLVAMLSNMDDPKAIGPAMAVALLTTLYGAILSNMVFFPIADKLSLRRDQETLNRRLIMDGVLAIQDGQNPRVIDSYLKNYLNEGKRALEIDE
stoichiometry N: ≤ 5
